Reference: US20250388669A1 (published 2025)

How the values were obtained:
[1] = molecular target: CD40 (UniProt P25942 21-193, limits assumed); test: FCM or ELISA, graded
[2] = molecular target: PD-1 (binding assay) (UniProt Q15116 25-167, limits assumed); test: FCM or ELISA, graded
[3] = molecular target: T1, CD19 (human, UniProt P15391 20-556); test: cell-based or functional assay
T1 sequence (looked up): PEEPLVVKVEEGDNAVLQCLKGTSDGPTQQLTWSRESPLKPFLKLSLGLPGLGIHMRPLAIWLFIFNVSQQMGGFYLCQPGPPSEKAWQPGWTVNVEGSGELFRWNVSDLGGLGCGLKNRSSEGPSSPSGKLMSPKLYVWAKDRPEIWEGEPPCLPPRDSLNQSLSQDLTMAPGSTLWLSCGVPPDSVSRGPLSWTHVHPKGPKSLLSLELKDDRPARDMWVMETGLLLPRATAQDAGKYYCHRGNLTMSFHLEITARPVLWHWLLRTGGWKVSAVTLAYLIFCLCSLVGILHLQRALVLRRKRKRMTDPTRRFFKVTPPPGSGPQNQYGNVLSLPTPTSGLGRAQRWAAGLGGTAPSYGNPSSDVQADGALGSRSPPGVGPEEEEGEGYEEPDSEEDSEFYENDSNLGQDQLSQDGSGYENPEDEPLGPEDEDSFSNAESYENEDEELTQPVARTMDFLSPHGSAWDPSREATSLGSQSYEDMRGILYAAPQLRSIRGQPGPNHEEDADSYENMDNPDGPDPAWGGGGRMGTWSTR

[4] = molecular target: T2, CD137 (human, UniProt Q07011 24-186); test: CD137 binding by FCM or ELISA
T2 construct: Reporter assays used GS-H2-huCD137 cells expressing human CD137; also called 4-1BB/CD137; huCD137

Chain of PD-1 (binding assay) (Q15116 25-167 limits assumed): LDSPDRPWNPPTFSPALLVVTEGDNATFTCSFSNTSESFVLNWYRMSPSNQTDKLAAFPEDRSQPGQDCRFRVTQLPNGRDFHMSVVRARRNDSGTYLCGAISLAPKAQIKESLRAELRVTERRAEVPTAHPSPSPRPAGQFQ
Chain of CD40 (P25942 21-193 limits assumed): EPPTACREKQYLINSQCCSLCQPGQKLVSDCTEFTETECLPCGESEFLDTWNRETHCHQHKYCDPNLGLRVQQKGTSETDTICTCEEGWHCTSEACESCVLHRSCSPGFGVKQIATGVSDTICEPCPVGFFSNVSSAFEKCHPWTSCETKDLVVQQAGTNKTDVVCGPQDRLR

B1: Ly2415 (bispecific antibody, human IgG1, kappa)
heavy 1: QVTLKESGPALVKPTQTLTLTCTFSGFSLSTSGTCVSWIRQPPGKALEWLATICWEDSKGYNPSLKSRLTISKDTSKNQAVLTMTNMDPVDTATYYCARREDSGYFWFPYWGQGTLVTVSSASTKGPSVFPLAPSSKSTSGGTAALGCLVKDYFPEPVTVSWNSGALTSGVHTFPAVLQSSGLYSLSSVVTVPSSSLGTQTYICNVNHKPSNTKVDKKVEPKSCDKTHTCPPCPAPEAAGPSVFLFPPKPKDTLMISRTPEVTCVVVDVSHEDPEVKFNWYVDGVEVHNAKTKPREEQYNSTYRVVSVLTVLHQDWLNGKEYKCKVSNKALPAPIEKTISKAKGQPREPQVYTLPPSREEMTKNQVSLWCLVKGFYPSDIAVEWESNGQPENNYKTTPPVLDSDGSFFLYSKLTVDKSRWQQGNVFSCSVMHEALHNHYTQKSLSLSPGGGGGSGGGGSGGGGSGGGGSEVQLVESGGGLVQPGGSLRLSCAASGFTFTNYGLHWVRQAPGKGLEWVSSISPSGGVTYYRDSVKGRFTISRDNSKNTLYLQMNSLRAEDTAVYYCAKPFLGWGGANWIAHWGQGTLVTVSS
heavy 2: QVTLKESGPALVKPTQTLTLTCTFSGFSLSTSGTCVSWIRQPPGKALEWLATICWEDSKGYNPSLKSRLTISKDTSKNQAVLTMTNMDPVDTATYYCARREDSGYFWFPYWGQGTLVTVSSASTKGPSVFPLAPSSKSTSGGTAALGCLVKDYFPEPVTVSWNSGALTSGVHTFPAVLQSSGLYSLSSVVTVPSSSLGTQTYICNVNHKPSNTKVDKKVEPKSCDKTHTCPPCPAPEAAGPSVFLFPPKPKDTLMISRTPEVTCVVVDVSHEDPEVKFNWYVDGVEVHNAKTKPREEQYNSTYRVVSVLTVLHQDWLNGKEYKCKVSNKALPAPIEKTISKAKGQPREPQVYTLPPSREEMTKNQVSLSCAVKGFYPSDIAVEWESNGQPENNYKTTPPVLDSDGSFFLVSKLTVDKSRWQQGNVFSCSVMHEALHNRFTQKSLSLSPGGGGGSGGGGSGGGGSGGGGSDIQMTQSPSSLSASVGDRVTITCLASEDISNDLAWYQQKPGKAPKLLIYFVDRLLDGVPSRFSGSGSGTDFTLTISSLQPEDFATYYCQQSYKYPPTFGQGTKLEIK
light: NIQMTQSPSSLSASVGDRVTITCKAGQNVNNYLAWYQQKPGKAPKVLIFNANSLQTGVPSRFSGSGSGTDFTLTISSLQPEDFATYYCQQYNSWPTFGGGTKVEIKRTVAAPSVFIFPPSDEQLKSGTASVVCLLNNFYPREAKVQWKVDNALQSGNSQESVTEQDSKDSTYSLSSTLTLSKADYEKHKVYACEVTHQGLSSPVTKSFNRGEC
notes: PD-1 Fabs (Ly516) x terminal CD40 Fv (TM559)
binding result [1]: binds
binding result [2]: binds

B2: Ly1966 (other)
chain 1: QVQLQQSGAELVRPGSSVKISCKASGYAFSSYWMNWVKQRPGQGLEWIGQIWPGDGDTNYNGKFKGKATLTADESSSTAYMQLSSLASEDSAVYFCARRETTTVGRYYYAMDYWGQGTTVTVSSASTKGPSVFPLAPSSKSTSGGTAALGCLVKDYFPEPVTVSWNSGALTSGVHTFPAVLQSSGLYSLSSVVTVPSSSLGTQTYICNVNHKPSNTKVDKKVEPKSCGGGGSGGGGSGGGGSGGGGSEVQLVESGGGLVQPGGSLRLSCAASGFTFSTYAMNWVRQAPGKGLEWVGRIRSKYNNYATYYADSVKGRFTISRDDSKNSLYLQMNSLKTEDTAVYYCVRHGNFGNSYVSWFAYWGQGTLVTVSSGGGGSDKTHTCPPCPAPEAAGPSVFLFPPKPKDTLMISRTPEVTCVVVDVSHEDPEVKFNWYVDGVEVHNAKTKPREEQYNSTYRVVSVLTVLHQDWLNGKEYKCKVSNKALPAPIEKTISKAKGQPREPQVYTLPPSREEMTKNQVSLWCLVKGFYPSDIAVEWESNGQPENNYKTTPPVLDSDGSFFLYSKLTVDKSRWQQGNVFSCSVMHEALHNHYTQKSLSLSPGGGGGSGGGGSGGGGSGGGGSQVQLVQSGAEVKKPGASVKVSCKASGYTFAGFEMHWVRQAPGQGLEWMGAIDPKTGGTDYNQKFKDRVTMTRDTSISTAYMELSRLRSDDTAVYYCARDLGYFDVWGQGTLVTVSS
chain 2: QVQLQQSGAELVRPGSSVKISCKASGYAFSSYWMNWVKQRPGQGLEWIGQIWPGDGDTNYNGKFKGKATLTADESSSTAYMQLSSLASEDSAVYFCARRETTTVGRYYYAMDYWGQGTTVTVSSASTKGPSVFPLAPSSKSTSGGTAALGCLVKDYFPEPVTVSWNSGALTSGVHTFPAVLQSSGLYSLSSVVTVPSSSLGTQTYICNVNHKPSNTKVDKKVEPKSCGGGGSGGGGSGGGGSGGGGSQAVVTQEPSLTVSPGGTVTLTCRSSTGAVTTSNYANWVQQKPGQAPRGLIGGTNKRAPWTPARFSGSLLGGKAALTITGAQAEDEADYYCALWYSNLWVFGGGTKLTVLGGGGSDKTHTCPPCPAPEAAGPSVFLFPPKPKDTLMISRTPEVTCVVVDVSHEDPEVKFNWYVDGVEVHNAKTKPREEQYNSTYRVVSVLTVLHQDWLNGKEYKCKVSNKALPAPIEKTISKAKGQPREPQVYTLPPSREEMTKNQVSLSCAVKGFYPSDIAVEWESNGQPENNYKTTPPVLDSDGSFFLVSKLTVDKSRWQQGNVFSCSVMHEALHNRFTQKSLSLSPGGGGGSGGGGSGGGGSGGGGSDIQMTQSPSSLSASVGDRVTITCRASQDIRSNLNWYQQKPGGAVKLLIYYTSRLHSGVPSRFSGSGSGTDYTLTISSLQPEDFATYFCQQSEKLPRTFGGGTKVEIR
light: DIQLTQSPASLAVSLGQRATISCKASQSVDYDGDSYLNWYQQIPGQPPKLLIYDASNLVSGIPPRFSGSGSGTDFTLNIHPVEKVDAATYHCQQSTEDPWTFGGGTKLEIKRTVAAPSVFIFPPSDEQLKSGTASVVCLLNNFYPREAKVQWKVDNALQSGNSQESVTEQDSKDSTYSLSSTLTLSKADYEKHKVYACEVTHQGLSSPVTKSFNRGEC
notes: Tri-specific CD19/CD3/CD137: two CD19 Fabs, central CD3 Fv, terminal CD137 Fv
EC50 of cytotoxicity (LDH release), Raji cells with human PBMCs, 48 hours [3]: 10.8 pM
binding result [4]: binds

B3: Ly1967 (other)
chain 1: QVQLQQSGAELVRPGSSVKISCKASGYAFSSYWMNWVKQRPGQGLEWIGQIWPGDGDTNYNGKFKGKATLTADESSSTAYMQLSSLASEDSAVYFCARRETTTVGRYYYAMDYWGQGTTVTVSSASTKGPSVFPLAPSSKSTSGGTAALGCLVKDYFPEPVTVSWNSGALTSGVHTFPAVLQSSGLYSLSSVVTVPSSSLGTQTYICNVNHKPSNTKVDKKVEPKSCGGGGSGGGGSGGGGSGGGGSEVQLVESGGGLVQPGGSLRLSCAASGFTFSTYAMNWVRQAPGKGLEWVGRIRSKYNNYATYYADSVKGRFTISRDDSKNSLYLQMNSLKTEDTAVYYCVRHGNFGNSYVSWFAYWGQGTLVTVSSGGGGSDKTHTCPPCPAPEAAGPSVFLFPPKPKDTLMISRTPEVTCVVVDVSHEDPEVKFNWYVDGVEVHNAKTKPREEQYNSTYRVVSVLTVLHQDWLNGKEYKCKVSNKALPAPIEKTISKAKGQPREPQVYTLPPSREEMTKNQVSLWCLVKGFYPSDIAVEWESNGQPENNYKTTPPVLDSDGSFFLYSKLTVDKSRWQQGNVFSCSVMHEALHNHYTQKSLSLSPGGGGGSGGGGSGGGGSGGGGSQVQLVQSGAEVKKPGASVKVSCKASGYTFAGFEMHWVRQAPGQGLEWMGAIDPKTGGTDYNQKFKDRVTMTRDTSISTAYMELSRLRSDDTAVYYCARDLGYFDVWGQGTLVTVSS
chain 2: QVQLQQSGAELVRPGSSVKISCKASGYAFSSYWMNWVKQRPGQGLEWIGQIWPGDGDTNYNGKFKGKATLTADESSSTAYMQLSSLASEDSAVYFCARRETTTVGRYYYAMDYWGQGTTVTVSSASTKGPSVFPLAPSSKSTSGGTAALGCLVKDYFPEPVTVSWNSGALTSGVHTFPAVLQSSGLYSLSSVVTVPSSSLGTQTYICNVNHKPSNTKVDKKVEPKSCGGGGSGGGGSGGGGSGGGGSQAVVTQEPSLTVSPGGTVTLTCRSSTGAVTTSNYANWVQQKPGQAPRGLIGGTNKRAPWTPARFSGSLLGGKAALTITGAQAEDEADYYCALWYSNLWVFGGGTKLTVLGGGGSDKTHTCPPCPAPEAAGPSVFLFPPKPKDTLMISRTPEVTCVVVDVSHEDPEVKFNWYVDGVEVHNAKTKPREEQYNSTYRVVSVLTVLHQDWLNGKEYKCKVSNKALPAPIEKTISKAKGQPREPQVYTLPPSREEMTKNQVSLSCAVKGFYPSDIAVEWESNGQPENNYKTTPPVLDSDGSFFLVSKLTVDKSRWQQGNVFSCSVMHEALHNHYTQKSLSLSPGGGGGSGGGGSGGGGSGGGGSDIQMTQSPSSLSASVGDRVTITCRASQDIRSNLNWYQQKPGGAVKLLIYYTSRLHSGVPSRFSGSGSGTDYTLTISSLQPEDFATYFCQQSEKLPRTFGGGTKVEIR
light: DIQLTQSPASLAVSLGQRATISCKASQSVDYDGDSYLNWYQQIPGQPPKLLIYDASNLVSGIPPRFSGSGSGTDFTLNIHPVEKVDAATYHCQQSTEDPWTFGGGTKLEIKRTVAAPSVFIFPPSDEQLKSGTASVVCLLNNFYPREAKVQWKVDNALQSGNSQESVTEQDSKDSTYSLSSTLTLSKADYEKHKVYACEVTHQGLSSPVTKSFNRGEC
EC50 of cytotoxicity (LDH release), Raji cells with human PBMCs, 48 hours [3]: 8.9 pM
binding result [4]: binds
